In PMC9482650, “Quantitative fragmentomics allow affinity mapping of interactomes” (Nature Communications, 2022):

Experiments:
Test in all cases: holdup assay
Design in all cases: key: below the threshold = too weak to quantify, mostly under pKd 3.1 to 4
Conditions in all cases: plain residues with an end cap or a label only (N-terminal biotin on a linker: ado-ado)
[1] = molecular target: T1, LIN7C, Q9NUP9
T1 sequence (Q9NUP9 88-185, limits assumed, looked up): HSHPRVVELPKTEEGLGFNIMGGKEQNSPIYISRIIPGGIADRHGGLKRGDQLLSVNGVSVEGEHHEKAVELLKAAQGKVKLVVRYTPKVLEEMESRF

[2] = molecular target: AHNAK1, Q09666
[3] = molecular target: Inadl_1, Q8NI35
[4] = molecular target: IL16_4, Q14005
[5] = molecular target: T2, LNX2_3, Q8N448
T2 sequence (Q8N448 463-564, limits assumed, looked up): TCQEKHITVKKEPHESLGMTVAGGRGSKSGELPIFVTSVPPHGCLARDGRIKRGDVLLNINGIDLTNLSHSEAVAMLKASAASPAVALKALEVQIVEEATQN

[6] = molecular target: T3, PDZD2_2, O15018
T3 sequence (O15018 329-429, limits assumed, looked up): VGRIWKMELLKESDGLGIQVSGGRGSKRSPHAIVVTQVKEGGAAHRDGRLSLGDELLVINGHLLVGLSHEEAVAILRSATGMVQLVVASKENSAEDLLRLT

[7] = molecular target: DLG4_2, P78352
[8] = molecular target: NHERF4_1, Q86UT5-2
[9] = molecular target: FRMPD2_1, Q68DX3
[10] = molecular target: Inadl_9, Q8NI35
[11] = molecular target: T4, ARHGAP21, Q5T5U3
T4 sequence (Q5T5U3 45-169, limits assumed, looked up): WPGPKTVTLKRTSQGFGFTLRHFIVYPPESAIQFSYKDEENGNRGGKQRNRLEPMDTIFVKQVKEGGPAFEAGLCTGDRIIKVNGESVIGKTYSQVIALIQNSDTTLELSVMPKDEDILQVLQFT

[12] = molecular target: Inadl_6, Q8NI35
[13] = molecular target: MAGI2_5, Q86UL8
[14] = molecular target: T5, PDZD7_3, Q9H5P4
T5 sequence (Q9H5P4 857-944, limits assumed, looked up): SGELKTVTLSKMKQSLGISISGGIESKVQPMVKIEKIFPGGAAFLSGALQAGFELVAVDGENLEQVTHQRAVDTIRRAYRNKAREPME

[15] = molecular target: GRID2IP_1, A4D2P6
[16] = molecular target: T6, GRIP1_4, Q9Y3R0
T6 sequence (Q9Y3R0 467-571, limits assumed, looked up): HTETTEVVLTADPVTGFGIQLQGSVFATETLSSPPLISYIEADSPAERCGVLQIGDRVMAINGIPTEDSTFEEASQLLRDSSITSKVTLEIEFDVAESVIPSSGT

[17] = molecular target: FRMPD2_2, Q68DX3
[18] = molecular target: Inadl_3, Q8NI35
[19] = molecular target: Inadl_8, Q8NI35
[20] = molecular target: T7, FRMPD1, Q5SYB0
T7 sequence (Q5SYB0 52-145, limits assumed, looked up): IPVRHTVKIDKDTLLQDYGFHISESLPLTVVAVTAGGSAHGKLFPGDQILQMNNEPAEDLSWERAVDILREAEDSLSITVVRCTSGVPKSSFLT

[21] = molecular target: T8, MPP2, Q14168
T8 sequence (Q14168 180-250, limits assumed, looked up): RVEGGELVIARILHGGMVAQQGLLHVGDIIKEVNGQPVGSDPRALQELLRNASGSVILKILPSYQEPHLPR

[22] = molecular target: T9, LIN7B, Q9HAP6
T9 sequence (Q9HAP6 88-185, limits assumed, looked up): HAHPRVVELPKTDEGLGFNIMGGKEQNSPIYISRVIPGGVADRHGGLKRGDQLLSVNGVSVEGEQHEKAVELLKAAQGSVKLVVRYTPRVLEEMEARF

[23] = molecular target: NHERF4_4, Q86UT5
[24] = molecular target: LNX1_3, Q8TBB1
[25] = molecular target: T10, CARD11, Q9BXL7
T10 sequence (Q9BXL7 662-765, limits assumed, looked up): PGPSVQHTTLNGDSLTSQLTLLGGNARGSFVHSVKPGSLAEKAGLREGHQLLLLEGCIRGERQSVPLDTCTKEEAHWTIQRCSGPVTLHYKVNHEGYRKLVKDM

[26] = molecular target: MAST2, Q6P0Q8
[27] = molecular target: T11, HTRA4, P83105
T11 sequence (P83105 378-476, limits assumed, looked up): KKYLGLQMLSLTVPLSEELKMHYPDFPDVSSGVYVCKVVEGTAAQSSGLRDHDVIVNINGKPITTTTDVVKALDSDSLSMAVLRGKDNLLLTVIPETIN

Sequence of Inadl_6, Q8NI35 (Q8NI35 1058-1167): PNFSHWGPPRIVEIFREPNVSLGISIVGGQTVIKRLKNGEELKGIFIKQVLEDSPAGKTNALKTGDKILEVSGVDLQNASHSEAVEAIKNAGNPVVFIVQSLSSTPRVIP
Sequence of Inadl_3, Q8NI35 (Q8NI35 359-469): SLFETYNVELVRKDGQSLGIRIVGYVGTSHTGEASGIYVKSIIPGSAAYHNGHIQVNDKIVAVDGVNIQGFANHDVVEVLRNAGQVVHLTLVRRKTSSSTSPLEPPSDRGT
Sequence of MAST2, Q6P0Q8 (Q6P0Q8 1099-1202): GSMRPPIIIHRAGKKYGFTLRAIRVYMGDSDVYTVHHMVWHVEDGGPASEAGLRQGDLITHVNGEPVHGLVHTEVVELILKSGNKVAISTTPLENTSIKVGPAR
Sequence of IL16_4, Q14005 (Q14005 1229-1329): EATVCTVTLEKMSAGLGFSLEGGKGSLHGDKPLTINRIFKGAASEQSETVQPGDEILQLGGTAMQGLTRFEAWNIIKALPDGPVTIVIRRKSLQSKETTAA
Sequence of GRID2IP_1, A4D2P6 (A4D2P6 1-87): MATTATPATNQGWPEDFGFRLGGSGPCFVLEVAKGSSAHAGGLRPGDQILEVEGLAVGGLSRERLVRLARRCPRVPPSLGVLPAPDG
Sequence of Inadl_1, Q8NI35 (Q8NI35 113-229): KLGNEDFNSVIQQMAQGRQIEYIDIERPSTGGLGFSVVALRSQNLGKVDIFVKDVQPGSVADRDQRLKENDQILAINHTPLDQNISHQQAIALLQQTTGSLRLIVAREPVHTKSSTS
Sequence of NHERF4_4, Q86UT5 (Q86UT5 464-550): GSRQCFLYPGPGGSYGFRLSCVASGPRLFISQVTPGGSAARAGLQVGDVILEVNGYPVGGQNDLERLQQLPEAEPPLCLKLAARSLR
Sequence of FRMPD2_1, Q68DX3 (Q68DX3 770-861): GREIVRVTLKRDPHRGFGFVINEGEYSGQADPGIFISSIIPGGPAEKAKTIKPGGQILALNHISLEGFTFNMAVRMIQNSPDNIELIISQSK
Sequence of MAGI2_5, Q86UL8 (Q86UL8 915-1017): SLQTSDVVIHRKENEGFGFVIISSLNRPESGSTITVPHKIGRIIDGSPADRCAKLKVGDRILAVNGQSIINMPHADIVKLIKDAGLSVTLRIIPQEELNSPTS
Sequence of Inadl_9, Q8NI35 (Q8NI35 1530-1615): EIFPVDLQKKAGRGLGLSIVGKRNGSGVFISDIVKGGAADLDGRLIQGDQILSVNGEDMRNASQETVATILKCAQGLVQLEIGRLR
Sequence of LNX1_3, Q8TBB1 (Q8TBB1 500-596): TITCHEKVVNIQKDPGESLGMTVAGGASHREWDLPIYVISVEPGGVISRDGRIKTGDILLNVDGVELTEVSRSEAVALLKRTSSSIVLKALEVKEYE
Sequence of FRMPD2_2, Q68DX3 (Q68DX3 944-1038): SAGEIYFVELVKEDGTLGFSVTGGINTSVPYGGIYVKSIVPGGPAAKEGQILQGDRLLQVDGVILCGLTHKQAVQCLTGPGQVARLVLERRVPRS
Sequence of Inadl_8, Q8NI35 (Q8NI35 1425-1530): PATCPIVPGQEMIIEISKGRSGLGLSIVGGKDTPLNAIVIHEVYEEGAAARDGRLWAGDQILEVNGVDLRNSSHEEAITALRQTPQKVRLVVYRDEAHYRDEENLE
Sequence of DLG4_2, P78352 (P78352 155-259): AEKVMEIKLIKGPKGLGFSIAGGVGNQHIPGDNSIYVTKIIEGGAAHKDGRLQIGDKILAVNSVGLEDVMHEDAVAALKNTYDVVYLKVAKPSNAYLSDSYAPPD
Sequence of NHERF4_1, Q86UT5-2 (Q86UT5 other isoform, or with tags, fused parts or gaps): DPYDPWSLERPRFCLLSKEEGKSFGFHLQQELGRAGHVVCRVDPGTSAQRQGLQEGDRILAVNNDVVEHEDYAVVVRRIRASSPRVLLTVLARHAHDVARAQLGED

| Binder | pKd [1] | pKd [2] | pKd [3] | pKd [5] | pKd [6] | pKd [7] | pKd [8] | pKd [9] | pKd [10] | pKd [11] | pKd [12] | pKd [13] | pKd [14] | pKd [15] | pKd [16] | pKd [17] | pKd [18] | pKd [19] | pKd [20] | pKd [21] | other results |
| --- | --- | --- | --- | --- | --- | --- | --- | --- | --- | --- | --- | --- | --- | --- | --- | --- | --- | --- | --- | --- | --- |
| PAALPESTHM [SLC9A3, P48764] | below the threshold | below the threshold | below the threshold | below the threshold | below the threshold | below the threshold | 3.75 | below the threshold | below the threshold | 4.05 | below the threshold | below the threshold | below the threshold | below the threshold | below the threshold | below the threshold | below the threshold | below the threshold | below the threshold | below the threshold | pKd [4]: below the threshold; pKd [22]: below the threshold; pKd [23]: below the threshold; pKd [24]: below the threshold; pKd [25]: below the threshold; pKd [26]: 5.35; pKd [27]: 3.9 |
| SKQFDKNAYV [CLDN10, P78369] | below the threshold | below the threshold | below the threshold | below the threshold | 5.11 | 3.52 | below the threshold | below the threshold | below the threshold | 3.84 | below the threshold | below the threshold | below the threshold | below the threshold | below the threshold | below the threshold | below the threshold | 3.5 | below the threshold | below the threshold | pKd [4]: below the threshold; pKd [22]: below the threshold; pKd [23]: below the threshold; pKd [24]: below the threshold; pKd [25]: below the threshold; pKd [26]: 4.02; pKd [27]: below the threshold |
| VYEVPVETKF [SLC26A3, P40879] | 4.01 | below the threshold | below the threshold | below the threshold | 3.72 | 3.66 | 3.67 | below the threshold | below the threshold | below the threshold | below the threshold | 3.71 | below the threshold | below the threshold | below the threshold | below the threshold | below the threshold | below the threshold | below the threshold | below the threshold | pKd [4]: below the threshold; pKd [22]: 4.21; pKd [23]: below the threshold; pKd [24]: below the threshold; pKd [25]: below the threshold; pKd [26]: 5.48; pKd [27]: below the threshold |
| NTALVESEDL [PALLS, Q8WX93;Q8WX93-1] | below the threshold | below the threshold | below the threshold | below the threshold | below the threshold | below the threshold | below the threshold | below the threshold | below the threshold | below the threshold | below the threshold | below the threshold | below the threshold | below the threshold | below the threshold | below the threshold | below the threshold | below the threshold | below the threshold | below the threshold | pKd [22]: below the threshold; pKd [23]: below the threshold; pKd [24]: below the threshold; pKd [25]: below the threshold; pKd [26]: 5.15; pKd [27]: below the threshold |
| VKQYADVEGF [HNRNPK, P61978;P61978-2] | 4.03 | below the threshold | below the threshold | below the threshold | below the threshold | below the threshold | 3.99 | below the threshold | below the threshold | below the threshold | below the threshold | below the threshold | below the threshold | below the threshold | below the threshold | below the threshold | below the threshold | below the threshold | below the threshold | below the threshold | pKd [24]: below the threshold; pKd [25]: below the threshold; pKd [27]: below the threshold |
